doi:10.1101/2025.07.14.664805

Each substance was assayed against B. mori CS-1 (Centromeric Subunit protein 1) (Bombyx mori) (assay: SEC-MALS).

Stoichiometry N, 1:
B. mori CS-3 (Centromeric Subunit protein 3) (natural protein)
B. mori CS-4 (Centromeric Subunit protein 4) (natural protein)
B. mori CS-2 (Centromeric Subunit protein 2) (natural protein)
